# Results: patent US5795718, “Detection of complementary nucleotide sequences” (Boehringer Mannheim Corporation)
# T1: BamHI (UniProt P23940 P23940:1-213)
# T1 sequence: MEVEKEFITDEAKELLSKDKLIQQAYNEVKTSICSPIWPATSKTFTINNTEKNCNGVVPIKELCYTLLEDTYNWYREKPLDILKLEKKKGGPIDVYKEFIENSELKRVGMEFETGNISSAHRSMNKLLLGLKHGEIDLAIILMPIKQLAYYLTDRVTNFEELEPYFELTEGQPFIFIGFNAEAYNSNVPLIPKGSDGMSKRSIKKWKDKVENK
# B1: ED4-BP-1/M13 mp18 hybrid (dsDNA)
# DNA 1: GAGGATCCCCGGGTACCGAGCTCG
# DNA 2: TGATTACGAATTCGAGCTCGGTACCCGGGGATCCTCTAGAGTCGA
# modifications: 5' amine linker (3 or 6 carbons) SMCC-conjugated to ED4 peptide on BP-1
# Columns and labels:
# Nuclease P1 [1] = molecular target: T2, Nuclease P1 (UniProt P24289 P24289:1-270); test: cleavage_in_vitro; almost 5-fold complementation increase; 20 mM Na acetate pH 5.3, 4 mM Mg acetate, 37 C, 16.5 min; details: tags: Bethesda Research Laboratories
# T2 sequence (P24289 whole entry, one chain of several): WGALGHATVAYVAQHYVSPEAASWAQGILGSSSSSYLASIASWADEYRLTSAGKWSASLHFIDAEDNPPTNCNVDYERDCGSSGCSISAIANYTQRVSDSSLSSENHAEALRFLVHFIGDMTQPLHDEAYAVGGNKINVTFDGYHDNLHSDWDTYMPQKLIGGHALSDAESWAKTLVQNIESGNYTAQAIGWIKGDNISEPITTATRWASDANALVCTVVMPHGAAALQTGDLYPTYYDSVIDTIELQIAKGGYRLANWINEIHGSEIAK
# Description: ED4-$T20$ was incubated at 37° C. for 16.5 minutes with various amounts of nuclease, P1 (Bethesda Research Laboratories), in 20 mM Na acetate pH 5.3, 4 mM Mg acetate. At the end of the incubation period, EA and the substrate, CPRG, were added in 150 mM Na phosphate, pH 7.2, 400 mM NaCl, 10 mM EGTA, 0.05% Tween 20 and 10 mM methionine. The rate of product formation was measured at 574 nm in mAU/min. The results (FIG. 1) indicate that the complementation activity of ED4-$T20$ can be increased by digestion of the conjugate with nuclease. An almost 5-fold increase in activity is seen between the use of no nuclease and highest concentration […] conditions.
# Nuclease P1 [2] = molecular target: T2, Nuclease P1; test: cleavage_in_vitro; 183.54 to 467.93 mAU/min after digestion; 20 mM Na acetate pH 5.3, 4 mM Mg acetate, 37 C; details: tags: Bethesda Research Laboratories
# BamHI = molecular target: T1, BamHI; test: cleavage_in_vitro; complementation rate 47.16 to 114.07 mAU/min after BamHI; 37 C, 40 min; details: chain copies: 2; 24 bp duplex within circular ssDNA
# Excerpt: Complementation Activity of ED4-BP-1 Before and After Hybridization To Target Nucleic Acid In order to determine whether an ED-nucleic acid conjugate would be useful as a probe for the complementation activity detection of specific nucleic acid sequences, a conjugate was made of ED4 and BP-1. BP-1 is a single-stranded DNA oligonucleotide 24 bases long (SEQ ID NO:1, FIG. 2). The BP-1 sequence is complementary to the multiple cloning site region of the single-stranded DNA from the bacteriophage M13 mp18 (SEQ ID NO:2, FIG. 3). The viral DNA which is about 7250 bases in length was used as a model target nucleic acid. 2.4×10^-10 mol of ED4-BP-1 conjugate was incubated with and without 2.4×10^-9 mol of M13 mp18 DNA at 55° C. for 10 minutes. EA (20 U/test) and CPRG (2.0 mg/ml final) were then added and the mixture incubated at 37° C. for 4 minutes. The rate of increase in A$574$ was measured per minute between 4 and 6 minutes. The rates of complementation were 80.73 and 47.16 mAU/min without and with target M13 DNA mp18 DNA, respectively. Therefore complementation was reduced approximately 42% (FIG. 4) by hybridization with the target nucleic acid.
# ED4-BP-1 was hybridized to M13 mp18 for 10 min at 55° C. […] The complementation efficiency of the ED4-BP-1/M13 mp18 complex before and after digestion with Bam HI was measured. The rate of increase in A574 was measured per minute as described above. […]
binder,measurement,setting,value
"TTTTTTTTTTTTTTTTTTTT (ssDNA, 5' amine linker SMCC-conjugated to ED4 peptide) [ED4-T20]",activity,Nuclease P1 [1],~5 fold
"GAGGATCCCCGGGTACCGAGCTCG (ssDNA, 5' amine linker SMCC-conjugated to ED4 peptide) [ED4-BP-1]",activity,Nuclease P1 [2],~2.5 fold
B1,activity,BamHI,2.4 fold
